In assay [1] the target is T1, recombinant human IL-18 (human, UniProt Q14116).
Target sequence in this assay (Q14116 37-193 limits assumed): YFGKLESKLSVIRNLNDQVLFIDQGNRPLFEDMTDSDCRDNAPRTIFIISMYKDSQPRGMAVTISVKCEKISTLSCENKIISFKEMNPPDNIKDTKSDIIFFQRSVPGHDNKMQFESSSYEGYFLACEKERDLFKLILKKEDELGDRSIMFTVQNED
The target in assay [2] is T1, recombinant human IL-18. Nature of the assay: cell-based or functional assay.

Like-named read-outs stand apart in the source and are kept apart here.

B1: APB-R3 protein (protein)
heavy: QVQLVQSGGGPVKPGGSLRLSCAASGFMFRAYSMNWVRQAPGKGLEWVSSISSSGRYIHYADSVKGRFTISRDNAKNSLYLQMNSLRAEDTAVYYCARETVMAGKALDYWGQGTLVTVSSASTKGPSVFPLAPSSKSTSEGTAALGCLVKDYFPEPVTVSWNSGALTSGVHTFPAVLQSSGLYSLSSVVTVPSSSLGTQTYICNVNHKPSNTKVDKKVEPKSSGSAPAPGSTPVSQTTTAATASVRSTKDPCPSQPPVFPAAKQCPALEVTWPEVEVPLNGTLSLSCVACSRFPNFSILYWLGNGSFIEHLPGRLWEGSTSRERGSTGTQLCKALVLEQLTPALHSTNFSCVLVDPEQVVQRHVVLAQLWAGLRATLPPTQEALPSSHSSPQQQG
light: DIVLTQSPGTLSLSPGETATLSCRASQSVGSNLAWYQQKPGQAPRLLIYGASTGATGVPARFSGSRSGTDFTLTITSLQPEDFATYYCQQYYSFLAKTFGQGTQLEIKRTVAAPSVFIFPPSDEQLKSGTASVVCLLNNFYPREAKVQWKVDNALQSGNSQESVTEQDSKDSTYSLSNTLTLSKADYEKHKVYACEVTHQGLSSPVTKSFNRGES
Consider B1, for which the IC50 of inhibition of IL-18-induced IFN-γ production in KG-1 cells in assay [1] was 0.0419 nM.

B2: recombinant human IL-18-binding protein with His-tag (hIL18BP-his8) (other)
chain: TPVSQTTTAATASVRSTKDPCPSQPPVFPAAKQCPALEVTWPEVEVPLNGTLSLSCVACSRFPNFSILYWLGNGSFIEHLPGRLWEGSTSRERGSTGTQLCKALVLEQLTPALHSTNFSCVLVDPEQVVQRHVVLAQLWAGLRATLPPTQEALPSSHSSPQQQGHHHHHHHH
On to B2, for which the “IC50 of inhibition of IL-18-induced IFN-γ production in KG-1 cells” value in assay [2] worked out at 0.024 nM.

These data come from patent publication US20250122254A1, “Recombinant Fusion Proteins Comprising Interleukin- 18-Binding Protein and Antigen Binding Fragment to Serum Albumin, and Compositions and Uses Thereof” (published 2025).
